Literature values as cited in PMC3749945.

Molecular target: Cdc42 (Homo sapiens) (UniProt P60953)
Chain of UniProt P60953 (P60953 1-188): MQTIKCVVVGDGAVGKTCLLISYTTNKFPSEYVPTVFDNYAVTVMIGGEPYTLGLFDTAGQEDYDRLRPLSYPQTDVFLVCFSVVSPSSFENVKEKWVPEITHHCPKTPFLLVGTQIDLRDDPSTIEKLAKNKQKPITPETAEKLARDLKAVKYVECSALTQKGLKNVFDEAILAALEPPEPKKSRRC

Kd: 74 nM
Substance: WASP (from UniProt P42768)
